target: T1, human Claudin18.2 (human); test: cell ELISA, Claudin18.2-expressing HEK293T cells
T1 construct: also called CLDN18.2
Summary of the method: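 Claudin18.2-expressing HEK293T stable cells (1.5×10⁶ cells/ml in 5% skim milk/PBS blocking buffer) were incubated 1 h at room temperature in plates pre-blocked overnight at 4° C. EC₅₀ was derived by four-parameter curve fit.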

EC50 [nM] | Binder
2.14 | 407A8G10 (antibody, V domains shown, mouse hybridoma mAb) VH: DVQLVESGGGLVQPGGSRKLSCAASGFTFSGFGMHWIRQTPEKGLEWVAYISSGSRPIYYADTVKGRFTISRDNPKNTLFLQMTSLRSEDTAMYFCARFYYGNSFDHWGQGTLVTVSA VL: DIVMTQSPSFLTVTAGEKVTMSCRSSQSLLNSGNQRNYLTWYQQKPGQPPKLLIYWASTRESGVPDRFTGSGSGTDFALTISSVQAEDLALYYCQNAYSFPLTFGAGTKLELK
2.61 | 420F12G8 (antibody, V domains shown, mouse hybridoma mAb) VH: DVQLVESGGGLVQPGGSRKLSCAASGFAFSGFGMHWIRQTPEKGLEWVAYISSGSRPIYYADTVKGRFTISRDNPKNTLFLQMTSLRSEDTAMYFCVRFYYGNSFDHWGQGTLVTVSA VL: DIVMTQSPSFLTVTAGEKVTMTCRSSQNLLNSGNQKNYLTWYQQKPGQPPKLLISWASTRESGVPDRFTGSGSGTDFTLTISSVQPEDLALYYCQNAYSFPFTFGAGTKLELK
7.03 | 420D5H5 (antibody, V domains shown, mouse hybridoma mAb) VH: DVQLVESGGGLVQPGGSRKLSCAASGFTLSGFGMHWIRQTPEKGLEWVAYISSGSRPIYYVDTVEGRFTISRDNPKNTLFLQMTSLRSEDTAMYFCARFYYGNSFDHWGQGTLVTVSS VL: DIVMTQSPSFLTVTAGEKVTMSCKSSQSLLNSGNQKNYLTWYQQKPGQPPKLLIYWASTRESGVPDRFTGSGSGTDFTLTIRGVQAEDLALYYCQNAYSFPLTFGAGTKLELK
2.39 | 420G10G3 (antibody, V domains shown, mouse hybridoma mAb) VH: DVQLVESGGGLVQPGGSRKLSCAASGFTFSGFGMHWIRQTAEKGLEWVAYISSGSRPIYYADTVQGRFTISRDNPKNTLFLQMTSLRSEDTAMYFCARFYYGNSFDHWGQGTLVTVSA VL: DIVMTQSPSFLTVTAGEKVTMSCKSSQSLLNSGNQKNYLTWYQQKPGQPPKLLIYWASTRESGVPDRFTGSGSGTDFTLTISSVQAEDLALYYCQNAYSFPLTFGAGTKLELK
2.61 | 419A5F3 (antibody, V domains shown, mouse hybridoma mAb) VH: DVQLVESGGGLVQPGGSRKLSCAASGFTFSGFGMHWIRQTPEKGLEWVAYISSDSRPIYYADTVKGRFTISRDNPKNTLFLQMTSLRSEDTAMYFCGRFYYGNSFDHWGQGTLVTVSA VL: DIVMTQSPSFLTVTAGEKVTLSCRSSQSLLNSGNQRNYLTWYQQKPGQPPKLLIYWASTRESGVPDRFTGSGSGTDFTLTISSVQAEDRALYYCQNAYSFPLTFGTGTKLELR
1.92 | 425C6D3 (antibody, V domains shown, mouse hybridoma mAb) VH: DVQLVESGGGLVQPGGSRKLSCAASGFTFSGFGMHWIRQTPEKGLEWVAYISSGSRPIYYADTVQGRFTISRDNPKNTLFLQMTSLRSEDTAMYFCARFYYGNSFDHWGQGTLVTVSS VL: DIVMTQSPSFLTVTAGEKVTMSCKSSQSLLNSGNQKNYLTWYQQKPGQPPKLLIYWASTRESGVPDRFTGSGSGTDFTLTISSVQAEDLALYYCQNAYSFPLTFGAGTKLELK
4.33 | 410D9G2 (antibody, V domains shown, mouse hybridoma mAb) VH: DVQLVESGGGLVQPGGSRKLSCAASGFTFSGFGMHWIRQTPEKGLEWVAYISSGSRPIYYADTVQGRFTISRDNPKNTLFLQMTSLRSEDTAMYFCARFYYGNSFDHWGQGTLVTVSS VL: DIVMTQSPSFLTVTAGEKVTMSCKSSQSLLNSGNQKNYLTWYQQKPGQPPKLLIYWASTRESGVPDRFTGSGSGTDFTLTISSVQAEDLALYYCQNAYSFPLTFGAGTKLELK
2.38 | 407D8G1 (antibody, V domains shown, mouse hybridoma mAb) VH: DVQLVESGGGLVQPGGSRKLSCAASGFTFSGFGMHWIRQTPEKGLEWVAYISSGSRPIYYADTVQGRFTISRDNPKNTLFLQMTSLRSEDTAMYFCARFYYGNSFDHWGQGTLVTVSS VL: DIVMTQSPSFLTVTAGEKVTMSCKSSQSLLNSGNQKNYLTWYQQKPGQPPKLLIYWASTRESGVPDRFTGSGSGTDFTLTISSVQAEDLALYYCQNAYSFPLTFGAGTKLELK
12 | 414H6G2 (antibody, V domains shown, mouse hybridoma mAb) VH: DVQLVESGGGLVQPGGSRKLSCAASGFTFSGFGMHWIRQTAEKGLEWVAYISSGSRPIYYADTVQGRFTISRDNPKNTLFLQMTSLRSEDTAMYFCARFYYGNSFDHWGQGTLVTVSA VL: DIVMTQSPSFLTVTAGEKVTMSCKSSQSLLNSGNQKNYLTWYQQKPGQPPKLLIYWASTRESGVPDRFTGSGSGTDFTLTISSVQAEDLALYYCQNAYSFPLTFGAGTKLELK
2.19 | 409G10G6 (antibody, V domains shown, mouse hybridoma mAb) VH: DVQLVESGGGLVQPGGSRKLSCAASGFTFSGFGMHWIRQTPEKGLEWVAYISSDSRPIYYADTVKGRFTISRDNPKNTLFLQMTSLRSEDTAMYFCGRFYYGNSFDHWGQGTLVTVSA VL: DIVMTQSPSFLTVTAGEKVTLSCRSSQSLLNSGNQRNYLTWYQQKPGQPPKLLIYWASTRESGVPDRFTGSGSGTDFTLTISSVQAEDRALYYCQNAYSFPLTFGTGTKLELR
2.05 | 409D1A7 (antibody, V domains shown, mouse hybridoma mAb) VH: DVQLVESGGGLVQPGGSRKLSCAASGFTFSGFGMHWIRQTPEKGLEWVAYISSGSRPIYYADTVKGRFTISRDNPKNTLFLHMTSLRSEDTAMYFCARFYYGNSFDHWGQGTLVTVSA VL: DIVMTQSPSFLTVTAGEKVTMNCKSSQSLLNSGNQRNYLTWYQQKPGQPPKLLIYWASTRESGVPDRFTGSGSGTDFTLTISSVQAEDLALYYCQNAYSFPLTFGAGTKLELN
1.24 | 407E11H8 (antibody, V domains shown, mouse hybridoma mAb) VH: DVQLVESGGGLVQPGGSRKLSCAASGFTFSDFGMHWIRQTPEKGLEWVAYISSGSRPIYYADTVKGRFTISRDNPKNTLFLQMTSLRSEDTAMYFCVRFYFGNSFDHWGQGTLVTVSA VL: DIVMTQSPSFLTVTAGEKVTMTCRSSQNLLNSGNLKNYLTWYQQKPGQPPKLLISWASTRESGVPDRFTGSGSGTDFTLTISSVQPEDLALYYCQNAYSFPLTFGAGTKLELK
~2.6 | 411A6E3 (antibody, V domains shown, mouse hybridoma mAb) VH: DVQLVESGGGLVQPGGSRKLSCAASGFTFSDFGMHWIRQTPEKGLEWVAYISSGSRPIYYADTVKGRFTISRDNPKNTLFLQMTSLRSEDTAMYFCVRFYFGNSFDHWGQGTLVTVSA VL: DIVMTQSPSFLTVTAGEKVTMTCRSSQNLLNSGNLKNYLTWYQQKPGQPPKLLISWASTRESGVPDRFTGSGSGTDFTLTISSVQPEDLALYYCQNAYSFPLTFGAGTKLELK
2.33 | 419A10D4 (antibody, V domains shown, mouse hybridoma mAb) VH: DVQLVESGGGLVQPGGSRKLSCAASGFTFSGFGMHWIRQTPEKGLEWVAYISSGSRPIYYADTVKGRFTISRDNPKNTLFLQMTSLRSEDTAMYFCARFYYGNSFDHWGQGTLVTVSA VL: DIVMTQSPSFLTVTAGEKVTMSCKSSQSLLNSGNQRNYLTWYQQKPGQPPKLLIYWASTRESGVPDRFTGSGSGTDFTLTVSSVQAEDLALYYCQNAYSFPLTFGAGTKLELK
2.61 | 425B3D5 (antibody, V domains shown, mouse hybridoma mAb) VH: DVQLVESGGGLVQPGGSRKLSCAASGFTFSGFGMHWIRQTPEKGLEWVAYISSGSRPIYYADTVQGRFTISRDNPKNTLFLQMTSLRSEDTAMYFCARFYYGNSFDHWGQGTLVTVSS VL: DIVMTQSPSFLTVTAGEKVTMSCKSSQSLLNSGNQKNYLTWYQQKPGQPPKLLIYWASTRESGVPDRFTGSGSGTDFTLTISSVQAEDLALYYCQNAYSFPLTFGAGTKLELK
3.55 | 413C12F8 (antibody, V domains shown, mouse hybridoma mAb) VH: DVQLVESGGGLVQPGGSRKLSCAASGFTFSGFGVHWIRQTPEKGLEWVAYIGSGSRPIYYADTVKGRFTISRDNPKNTLFLQMTSLRSEDTAMYFCARFYYGNSFDHWGQGTLVTVSA VL: DIVMTQSPSFLTVTAGEKVTMNCRSSQSLLNSGNQKNYLTWYQQRPGQPPKLLIYWASTRESGVPDRFTGSGSGTDFTLTISSVQAEDLALYYCQNAYSFPLTFGAGTKLELK
2.85 | 411B4G4 (antibody, V domains shown, mouse hybridoma mAb) VH: DVQLVESGGGLVQPGGSRKLSCAASGFTFSGFGLHWIRQTPEKGLEWVAYISSGSRPIYYADTVKGRFTISRDNPKNTLFLQMTSLRSEDTAMYFCARFYYGNSFDHWGQGTLVTVSA VL: DIVMTQSPSFLTVTAGEKVTMSCRSSQSLLNSGNQRNYLTWYQQKPGQPPKLLIYWASTRESGVPDRFTGSGSGTDFTLTISSVQAEDLALYYCQNAYSFPLTFGAGTKLELK
2.45 | 411G3E10 (antibody, V domains shown, mouse hybridoma mAb) VH: DVQLVESGGGLVQPGGSRKLSCAASGFTFSGFGMHWIRQTPEKGLEWVAYISSGSRPIYYADTVKGRFTISRDNPKNTLFLQMTSLRSEDTAMYFCARFYYGNSFDHWGQGTLVTVSA VL: DIVMTQSPSFLTVTAGEKVTMNCRSSQSLLNSGNQKNYLTWYQQKPGQPPKLLIYWASTRESGVPDRFTGSGSGTDFTLTISSVQAEDLALYYCQNAYSFPLTFGAGTKLELK
3.47 | 411G12G1 (antibody, V domains shown, mouse hybridoma mAb) VH: DVQLVESGGGLVQPGGSRKLSCAASGFTFSGFGMHWIRQAPEKGLEWVAYISSGSRPIYYADTVKGRFTISRDNPKNTLFLQMTSLRSEDTAMYFCARFYYGNSFDHWGQGTLVTVSA VL: DIVMTQSPSFLTVTAGEKVTMSCKSSQSLLNSGNQKNYLTWYQQKPGQPPKLLIYWASTRESGVPDRFTGSGSGTDFTLTISSVQAEDLAVYYCQNDYSFPLTFGAGTKLELK
1.88 | 422E8F9 (antibody, V domains shown, mouse hybridoma mAb) VH: DVQLVESGGGLVQPGGSRKLSCAASGFTFSGFGMHWIRQTPEKGLEWVAYISSGSRPIYYADTVQGRFTISRDNPKNTLFLQMTSLRSEDTAMYFCARFYYGNSFDHWGQGTLVTVSS VL: DIVMTQSPSFLTVTAGEKVTMSCKSSQSLLNSGNQKNYLTWYQQKPGQPPKLLIYWASTRESGVPDRFTGSGSGTDFTLTISSVQAEDLALYYCQNAYSFPLTFGAGTKLELK
2.47 | 421H4G3 (antibody, V domains shown, mouse hybridoma mAb) VH: DVQLVESGGGLVQPGGSRKLSCAASGFSFSGFGLHWIRQTPEKGLEWVAYISSGSRPIYYADTVKGRFTISRDNPKNTLFLQMTSLRSEDTAMYFCARFYFGNSFDHWGQGTLVTVST VL: DIVMTQSPSFLTVTAGEKVTMSCRSSQSLLNSGNQRNYLTWYQQKPGQPPKLLIYWASTRESGVPDRFTGSGSGTDFTLTINSVQAEDLALYYCQNAYSFPLTFGAGTKLELK
